Paper PMC3672029 (BMC Structural Biology, 2013)

Target: the molecule itself
Experiment: crystal structure; Se-Met MJ0391 (28 mg/mL), sitting-drop vapor diffusion at 293 K, 50%(v/v) PEG-400, 0.1 M MES pH 6.0; MAD, refined at 2.3 Å; two NCS molecules in the asymmetric unit, tetramer generated by the crystallographic 2-fold axis

B1: hypothetical protein MJ0391 from Methanocaldococcus jannaschii (putative CbiT) (enzyme, Methanocaldococcus jannaschii DSM 2661)
chain: MKYMIPDEEFIRREGVPITKEEIRAVSIGKLNLNKDDVVVDVGCGSGGMTVEIAKRCKFVYAIDYLDGAIEVTKQNLAKFNIKNCQIIKGRAEDVLDKLEFNKAFIGGTKNIEKIIEILDKKKINHIVANTIVLENAAKIINEFESRGYNVDAVNVFISYAKKIPSGHMFLAKNPITIIKAVR
modifications: selenomethionine in place of methionine (Se-Met protein; Mse4 and Mse169 are printed)
notes: MJ0391 protein, putative CbiT (cobalt-precorrin-7 C15-methyltransferase / C12-decarboxylase), Methanocaldococcus jannaschii DSM 2661; gene amplified from genomic DNA and cloned into pET-21a; 183 amino acid residues and 21 kDa per monomer; residues 1-3 are not seen in the final model
  stoichiometry N: 4
